The target in experiment [1] is Fab of anti-PDL1 antibody C5H9v2. The experiment in a line: binding of Fab to peptide-displaying clones.
Experiment [2] concerns the target T1, anti-PDL1 antibody C5H9v2.
T1 construct: IgG; also called anti-PDL1 parental antibody C5H9v2
Kind of experiment: binding of antibody to peptide-displaying clones.

In experiment [3] the target is T2, human B7-1-Fc (R&D Systems) (human, UniProt P33681 35-242).
T2 construct: not shown: Fc part of the bought fusion protein; not described
T2 sequence (looked up): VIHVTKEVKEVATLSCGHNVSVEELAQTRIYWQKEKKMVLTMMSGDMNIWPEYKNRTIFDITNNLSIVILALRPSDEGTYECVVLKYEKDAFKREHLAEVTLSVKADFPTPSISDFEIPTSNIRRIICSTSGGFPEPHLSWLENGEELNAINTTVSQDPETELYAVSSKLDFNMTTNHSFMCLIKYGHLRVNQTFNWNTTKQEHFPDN
Kind of experiment: Fab-phage ELISA, antigen adsorbed. From the text: Forty seven (47) individual isolates were chosen from the final pool. […] Briefly, the antigens were adsorbed to the wells of a 96-well ELISA plate, each ligand on a separate plate. Phage were applied to correlative wells on each plate and allowed to bind. Bound phage were visualized with an anti-M13-HRP conjugate and developed with the chromogenic substrate TMB. Based on the results of the ELISA and DNA sequence, 6 unique clones with matured heavy variable CDR3 domains and 10 heavy variable CDR2 domains were chosen for further study. […] Table 4 lists the heavy variable domains encoded by the clones and SEQ ID NOs for the nucleic acid sequences and amino acid sequences of their respective heavy chains.
Background: An ELISA detects its analyte on a solid surface through an enzyme-linked reagent.

B1: masking moiety PL05 (peptide)
peptide: FGPRCGEASTCVPYE
As for B1, the binding result in experiment [1] and in experiment [2] was “binds” each time.

B2: masking moiety PL02 (peptide)
peptide: SCLMHPHYAHDYCYV
B2: the binding result in experiment [1] and in experiment [2] was “binds” throughout.

B3: masking moiety PL08 (peptide)
peptide: DGPRCFVSGECSPIG
For the molecule B3, the binding result in experiment [1] and in experiment [2] was “binds” in each case.

B4: masking moiety PL06 (peptide)
peptide: ILYCDSWGAGCLTRP
Turning to B4, the binding result in experiment [1] and in experiment [2] was “binds” in each case.

B5: masking moiety PL09 (peptide)
peptide: LCYKLDYDDRSYCHI
Turning to B5, the binding result in experiment [1] and in experiment [2] was “binds” throughout.

B6: masking moiety PL03 (peptide)
peptide: LCEVLMLLQHPWCMG
Consider B6, for which the binding result in experiment [1] and in experiment [2] was “binds” throughout.

B7: masking moiety PL11 (peptide)
peptide: PCYWHPFFAYRYCNT
Consider B7, for which the binding result in experiment [1] and in experiment [2] was “binds” in each case.

B8: masking moiety PL14 (peptide)
peptide: YLPCHFVPIGACNNK
With B8, the binding result in experiment [1] and in experiment [2] was “binds” in each case.

B9: masking moiety PL01 (peptide)
peptide: YCEVSELFVLPWCMG
On to B9, for which the binding result in experiment [1] and in experiment [2] was “binds” throughout.

B10: masking moiety PL12 (peptide)
peptide: VCYYMDWLGRNWCSS
With B10, the binding result in experiment [1] and in experiment [2] was “binds” in each case.

B11: masking moiety PL07 (peptide)
peptide: GIALCPSHFCQLPQT
On to B11, for which the binding result in experiment [1] and in experiment [2] was “binds” throughout.

B12: masking moiety PL04 (peptide)
peptide: IACRHFMEQLPFCHH
Take B12: the binding result in experiment [1] and in experiment [2] was “binds” each time.

B13: PDL1 A05 Fab-phage (Fab, V domains shown)
VH: EVQLLESGGGLVQPGGSLRLSCAASGFTFSSYAMSWVRQAPGKGLEWVSSIWKQGIVTVYDSVKGRFTISRDNSKNTLYLQMNSLRAEDTAVYYCAKSSAGFDYWGQGTLVTV
VL: DIQMTQSPSSLSASVGDRVTITCRASQSISSYLNWYQQKPGKAPKLLIYYASTLQSGVPSRFSGSGSGTDFTLTISSLQPEDFATYYCQQDNGYPSTFGQGTKVEIKR
As for B13, the binding result in experiment [3] is “no binding”.

B14: PDL1 G12 Fab-phage (Fab, V domains shown)
VH: EVQLLESGGGLVQPGGSLRLSCAASGFTFSSYAMSWVRQAPGKGLEWVSSIWYQGLVTVYDSVKGRFTISRDNSKNTLYLQMNSLRAEDTAVYYCAKSSAGFDYWGQGTLVTVSS
VL: DIQMTQSPSSLSASVGDRVTITCRASQSISSYLNWYQQKPGKAPKLLIYYASTLQSGVPSRFSGSGSGTDFTLTISSLQPEDFATYYCQQDNGYPSTFGQGTKVEIKR
For the molecule B14, the binding result in experiment [3] is “no binding”.

B15: PDL1 G09 Fab-phage (Fab, V domains shown)
VH: EVQLLESGGGLVQPGGSLRLSCAASGFTFSSYAMSWVRQAPGKGLEWVSEIVATGILTSYDSVKGRFTISRDNSKNTLYLQMNSLRAEDTAVYYCAKSSAGFDYWGQGTLVTVSS
VL: DIQMTQSPSSLSASVGDRVTITCRASQSISSYLNWYQQKPGKAPKLLIYYASTLQSGVPSRFSGSGSGTDFTLTISSLQPEDFATYYCQQDNGYPSTFGQGTKVEIKR
On to B15, for which the binding result in experiment [3] was “no binding”.

B16: PDL1 D01 Fab-phage (Fab, V domains shown)
VH: EVQLLESGGGLVQPGGSLRLSCAASGFTFSSYAMSWVRQAPGKGLEWVSSIWKQGIVTVYDSVKGRFTISRDNSKNTLYLQMNSLRAEDTAVYYCAKSSAGFDYWGQGTLVTVSS
VL: DIQMTQSPSSLSASVGDRVTITCRASQSISSYLNWYQQKPGKAPKLLIYYASTLQSGVPSRFSGSGSGTDFTLTISSLQPEDFATYYCQQDNGYPSTFGQGTKVEIKR
Regarding B16, the binding result in experiment [3] is on record as “no binding”.

B17: PDL1 G10 Fab-phage (Fab, V domains shown)
VH: EVQLLESGGGLVQPGGSLRLSCAASGFTFSSYAMSWVRQAPGKGLEWVSSIGRQGLITVYDSVKGRFTISRDNSKNTLYLQMNSLRAEDTAVYYCAKSSAGFDYWGQGTLVTVSS
VL: DIQMTQSPSSLSASVGDRVTITCRASQSISSYLNWYQQKPGKAPKLLIYYASTLQSGVPSRFSGSGSGTDFTLTISSLQPEDFATYYCQQDNGYPSTFGQGTKVEIKR
In the case of B17, in experiment [3], the binding result is listed as “no binding”.

B18: PDL1 C10 Fab-phage (Fab, V domains shown)
VH: EVQLLESGGGLVQPGGSLRLSCAASGFTFSSYAMSWVRQAPGKGLEWVSDIWKQGMVTVYDSVKGRFTISRDNSKNTLYLQMNSLRAEDTAVYYCAKSSAGFDYWGQGTLVTVSS
VL: DIQMTQSPSSLSASVGDRVTITCRASQSISSYLNWYQQKPGKAPKLLIYYASTLQSGVPSRFSGSGSGTDFTLTISSLQPEDFATYYCQQDNGYPSTFGQGTKVEIKR
For the molecule B18, the binding result in experiment [3] is “no binding”.

B19: PDL1 D08 Fab-phage (Fab, V domains shown)
VH: EVQLLESGGGLVQPGGSLRLSCAASGFTFSSYAMSWVRQAPGKGLEWVSSIWRQGLATAYDSVKGRFTISRDNSKNTLYLQMNSLRAEDTAVYYCAKSSAGFDYWGQGTLVTVSS
VL: DIQMTQSPSSLSASVGDRVTITCRASQSISSYLNWYQQKPGKAPKLLIYYASTLQSGVPSRFSGSGSGTDFTLTISSLQPEDFATYYCQQDNGYPSTFGQGTKVEIKR
Regarding B19, the binding result in experiment [3] is “no binding”.

B20: PDL1 C05 Fab-phage (Fab, V domains shown)
VH: EVQLLESGGGLVQPGGSLRLSCAASGFTFSSYAMSWVRQAPGKGLEWVSSIWRNGIVTVYDSVKGRFTISRDNSKNTLYLQMNSLRAEDTAVYYCAKSSAGFDYWGQGTLVTVSS
VL: DIQMTQSPSSLSASVGDRVTITCRASQSISSYLNWYQQKPGKAPKLLIYYASTLQSGVPSRFSGSGSGTDFTLTISSLQPEDFATYYCQQDNGYPSTFGQGTKVEIKR
As for B20, in experiment [3], the binding result is recorded as “no binding”.

B21: masking moiety PL13 (peptide)
peptide: LCDLFKLREFPYCMG
On to B21, for which the binding result in experiment [1] and in experiment [2] was “binds” throughout.

B22: masking moiety PL10 (peptide)
peptide: PCHPHPYDARPYCNV
For the molecule B22, the binding result in experiment [1] and in experiment [2] was “binds” each time.

B23: masking moiety PL16 (peptide)
peptide: ACHPHPYDARPYCNV
notes: differs from PL10 by one alanine
With B23, the binding result in experiment [1] and in experiment [2] was “binds” each time.

B24: masking moiety PL22 (peptide)
peptide: PCHPHPYDARPACNV
notes: as for B23
Regarding B24, the binding result in experiment [1] and in experiment [2] was “binds” each time.

B25: masking moiety PL19 (peptide)
peptide: PCHPHPADARPYCNV
notes: as for B23
B25: the binding result in experiment [1] and in experiment [2] was “binds” each time.

B26: masking moiety PL23 (peptide)
peptide: PCHPHPYDARPYCAV
notes: as for B23
Regarding B26, the binding result in experiment [1] and in experiment [2] was “binds” in each case.

B27: masking moiety PL24 (peptide)
peptide: PCHAHPYDARPYCNV
notes: as for B23
As for B27, the binding result in experiment [1] and in experiment [2] was “binds” each time.

B28: masking moiety PL17 (peptide)
peptide: PCHPAPYDARPYCNV
notes: as for B23
With B28, the binding result in experiment [1] and in experiment [2] was “binds” each time.

B29: masking moiety PL18 (peptide)
peptide: PCHPHAYDARPYCNV
notes: as for B23
B29: the binding result in experiment [1] and in experiment [2] was “binds” in each case.

B30: masking moiety PL20 (peptide)
peptide: PCHPHPYAARPYCNV
notes: as for B23
In the case of B30, the binding result in experiment [1] and in experiment [2] was “binds” each time.

B31: masking moiety PL21 (peptide)
peptide: PCHPHPYDAAPYCNV
notes: as for B23
Consider B31, for which the binding result in experiment [1] and in experiment [2] was “binds” each time.

B32: masking moiety PL25 (peptide)
peptide: PCHPHPYDARAYCNV
notes: as for B23
Consider B32, for which the binding result in experiment [1] and in experiment [2] was “binds” each time.

B33: masking moiety PL15 (peptide)
peptide: IFCHMGVVVPQCANY
B33: the binding result in experiment [1] and in experiment [2] was “binds” in each case.

(Values after US20190382493A1 (CYTOMX THERAPEUTICS, published 2019).)
